“Also recorded” adds a separate entry of the source.
How the values were obtained:
[1] = Solubility of recombinant ATF fragments; type: physicochemical; conditions: compared to ATF 135 aa
Excerpt: The amino terminal fragment (ATF, 135 aa) of uPA was used as a target ligand to develop uPAR-targeted theranostic IONPs. The yield and purity of recombinant ATF from bacterial cultures have been less than optimal due to the formation of undesirable aggregates. By removing of the hydrophobic amino acids that promote the formation of aggregates, uPAR targeting ligands (39 and 68 aa) with receptor-binding peptide regions were engineered as improvements.
In comparison with the full length ATF (135 aa), this short uPAR targeted ligand is an improved candidate to engineer the fusion targeting ligand ATF68-MMP14 with dual uPAR targeting and MMP14 protease activity.

[2] = biological target: uPAR (Homo sapiens, UniProt Q03405); test: uPAR-targeting efficiency of ATF fragment; conditions: in comparison with the full length ATF (135 aa)
Chain of uPAR (Q03405 23-305): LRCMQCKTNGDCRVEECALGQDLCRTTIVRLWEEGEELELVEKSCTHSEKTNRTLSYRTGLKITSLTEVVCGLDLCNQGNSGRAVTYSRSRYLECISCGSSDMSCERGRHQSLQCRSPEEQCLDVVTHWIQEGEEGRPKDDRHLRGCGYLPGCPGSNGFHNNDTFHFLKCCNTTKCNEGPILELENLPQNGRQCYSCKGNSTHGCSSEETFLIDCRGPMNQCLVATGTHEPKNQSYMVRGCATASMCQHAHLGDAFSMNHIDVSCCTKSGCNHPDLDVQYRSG

uPAR-targeting efficiency [2]: higher uPAR-targeting efficiency
B1: ATF68: uPA-ATF with only the growth factor domain, 68 aa uPAR targeting ligand (SEQ ID NO:2) (protein)
chain: SNELHQVPSNCDCLNGGTCVSNKYFSNIHWCNCPKKFGGQHCEIDKSKTCYEGNGHFYRGKASTDTMG
solubility [1]: better solubility; also recorded: improved physiological solubility

From patent US12201692B2, “Targeted protease compositions and uses related thereto” (Emory University, priority 2013, dated 2025)
